From article doi:10.1101/2021.02.02.429361 (bioRxiv, 2021)

T1: ABI5 (His-ABI5) (Arabidopsis thaliana) (UniProt Q9SJN0)
T1 sequence: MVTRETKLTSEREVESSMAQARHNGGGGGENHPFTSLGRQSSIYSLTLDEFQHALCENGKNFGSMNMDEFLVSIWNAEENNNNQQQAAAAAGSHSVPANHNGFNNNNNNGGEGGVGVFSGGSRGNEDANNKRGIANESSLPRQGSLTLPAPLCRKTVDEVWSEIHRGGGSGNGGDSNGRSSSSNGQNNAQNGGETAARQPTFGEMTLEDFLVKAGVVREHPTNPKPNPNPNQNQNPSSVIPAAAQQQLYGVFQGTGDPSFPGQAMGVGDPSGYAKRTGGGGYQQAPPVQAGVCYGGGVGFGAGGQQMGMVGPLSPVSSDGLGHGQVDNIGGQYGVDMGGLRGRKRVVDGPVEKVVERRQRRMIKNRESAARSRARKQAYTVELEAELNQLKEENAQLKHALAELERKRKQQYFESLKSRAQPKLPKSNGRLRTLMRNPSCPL

T2: His-AtABI5 (Arabidopsis thaliana, UniProt Q9SJN0 1-442)
T2 sequence (looked up): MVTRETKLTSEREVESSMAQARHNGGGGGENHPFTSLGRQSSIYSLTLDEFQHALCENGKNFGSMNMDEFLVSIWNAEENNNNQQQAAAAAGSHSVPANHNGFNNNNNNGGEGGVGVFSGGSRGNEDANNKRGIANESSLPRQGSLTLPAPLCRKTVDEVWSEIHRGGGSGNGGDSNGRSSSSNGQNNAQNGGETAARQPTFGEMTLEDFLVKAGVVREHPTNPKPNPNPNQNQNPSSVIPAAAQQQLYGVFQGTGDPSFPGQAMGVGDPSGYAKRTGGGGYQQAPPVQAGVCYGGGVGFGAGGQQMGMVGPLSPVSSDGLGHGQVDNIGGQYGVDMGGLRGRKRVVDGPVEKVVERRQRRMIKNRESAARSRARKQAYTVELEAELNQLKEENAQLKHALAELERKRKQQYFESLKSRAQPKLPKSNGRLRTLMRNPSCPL


Assays:
[1] = target: T1, ABI5 (His-ABI5) (Arabidopsis thaliana); test: EMSA
[2] = target: T2, His-AtABI5; test: pull-down

binding result [2]	Molecule	binding [1]
–	AGTGTTATATAATTTTACGTAACGTAAAACAATACAAAATTTTAATTCCTGAACGAATAAAACGAGTATATTAATTAATTTATTGATCGTATTAAAACGAATATGATCCAATTAAGATTACAATTACTAAAATCCCCACACTATTATTGTCATTATTTAACTATGGCAGATAGATAGATACAGAACCGTAAAGGACGTTAGGAAGAGGAAGAACGTTGACGAAGTCAAC (double strand) [AtMPK3 promoter fragment (-402 to -256)]	binds
binds	GST-AtMPK3 (enzyme, Arabidopsis thaliana, UniProt Q39023 1-370, looked up) MNTGGGQYTDFPAVETHGGQFISYDIFGSLFEITSKYRPPIIPIGRGAYGIVCSVLDTETNELVAMKKIANAFDNHMDAKRTLREIKLLRHLDHENIIAIRDVVPPPLRRQFSDVYISTELMDTDLHQIIRSNQSLSEEHCQYFLYQLLRGLKYIHSANIIHRDLKPSNLLLNANCDLKICDFGLARPTSENDFMTEYVVTRWYRAPELLLNSSDYTAAIDVWSVGCIFMELMNRKPLFPGKDHVHQMRLLTELLGTPTESDLGFTHNEDAKRYIRQLPNFPRQPLAKLFSHVNPMAIDLVDRMLTFDPNRRITVEQALNHQYLAKLHDPNDEPICQKPFSFEFEQQPLDEEQIKEMIYQEAIALNPTYG	–
